Publication PMC9729196, “An in silico method to assess antibody fragment polyreactivity” (Nature Communications, 2022)

B1: AT118i4h32 / wild-type human FLAG-AT1R (angiotensin II type 1 receptor) [human] (parent complex)
chain 1: MAEVQLVESGGGLVQPGGSLRLSCAASGYIYRRYRMGWYRQAPGKGREFVAAISGGSSTNYADSVKGRFTISRDNSKNTVYLQMNSLRAEDTAVYYCAAYRIVSDPRVYWGQGTQVTVSSLE
chain 2: MILNSSTEDGIKRIQDDCPKAGRHNYIFVMIPTLYSIIFVVGIFGNSLVVIVIYFYMKLKTVASVFLLNLALADLCFLLTLPLWAVYTAMEYRWPFGNYLCKIASASVSFNLYASVFLLTCLSIDRYLAIVHPMKSRLRRTMLVAKVTCIIIWLLAGLASLPAIIHRNVFFIENTNITVCAFHYESQNSTLPIGLGLTKNILGFLFPFLIILTSYTLIWKALKKAYEIQKNKPRNDDIFKIIMAIVLFFFFSWIPHQIFTFLDVLIQLGIIRDCRIADIVDTAMPITICIAYFNNCLNPLFYGFLGKKFKRYFLQLLKYIPPKAKSHSNLSTKMSTLSYRPSDNVSSSTKKPAPCFEVE

Variants of: B1
Assay: flow cytometry on cells; parent: 100; read off a plot

| percent of parent | Variant |
| --- | --- |
| ~99 % of WT | chain 1 MAEVQLVESGGGLVQPGGSLRLSCAASDYIYRRYRMGWYRQAPGKGREFVAAISGGSSINYADSVKGRFTISRDNSKNTVYLQMNSLRAEDTAVYYCAAYRIVSDPRVYWGQGTQVTVSSLE |
| ~54 % of WT | chain 1 MAEVQLVESGGGLVQPGGSLRLSCAASGYIYRRYRMGWYRQAPGKGREFVAAISGFSSTNYADSVKGRFTISRDNSKNTVYLQMNSLRAEDTAVYYCAAYRIVSDPRVYWGQGTQVTVSSLE |
| ~17 % of WT | chain 1 MAEVQLVESGGGLVQPGGSLRLSCAASGYIYRRYRMGWYRQAPGKGREFVAAISGGSSTNYADSVKGRFTISRDNSKNTVYLQMNSLRAEDTAVYYCAAYDIVSDPRVYWGQGTQVTVSSLE |
| ~3 % of WT | chain 1 MAEVQLVESGGGLVQPGGSLRLSCAASGYIYRRYRMGWYRQAPGKGREFVAAISGGSSTNYADSVKGRFTISRDNSKNTVYLQMNSLRAEDTAVYYCAHYRIVSDPRVYWGQGTQVTVSSLE |
| ~12 % of WT | chain 1 MAEVQLVESGGGLVQPGGSLRLSCAASGYIYRRYRMGWYRQAPGKGREFVAAISGGSSTNYADSVKGRFTISRDNSKNTVYLQMNSLRAEDTAVYYCAADRIVSDPRVYWGQGTQVTVSSLE |
| ~22 % of WT | chain 1 MAEVQLVESGGGLVQPGGSLRLSCAASGYIYRRYRMGWYRQAPGKGREFVAAISGGSSTNYADSVKGRFTISRDNSKNTVYLQMNSLRAEDTAVYYCWAYRIVSDPRVYWGQGTQVTVSSLE |
| ~48 % of WT | chain 1 MAEVQLVESGGGLVQPGGSLRLSCAASGYIRRRYRMGWYRQAPGKGREFVAAISGGSSTNYADSVKGRFTISRDNSKNTVYLQMNSLRAEDTAVYYCAAYRIVSDPRVYWGQGTQVTVSSLE |
| ~8 % of WT | chain 1 MAEVQLVESGGGLVQPGGSLRLSCAASGYIYRDYRMGWYRQAPGKGREFVAAISGGSSTNYADSVKGRFTISRDNSKNTVYLQMNSLRAEDTAVYYCAAYRIVSDPRVYWGQGTQVTVSSLE |
| ~3 % of WT | chain 1 MAEVQLVESGGGLVQPGGSLRLSCAASGYIYRRGRMGWYRQAPGKGREFVAAISGGSSTNYADSVKGRFTISRDNSKNTVYLQMNSLRAEDTAVYYCAAYRIVSDPRVYWGQGTQVTVSSLE |
| ~41 % of WT | chain 1 MAEVQLVESGGGLVQPGGSLRLSCAASGYIYRRYRMGWYRQAPGKGREFVAAIVGGSSTNYADSVKGRFTISRDNSKNTVYLQMNSLRAEDTAVYYCAAYRIVSDPRVYWGQGTQVTVSSLE |
